Data from PMC4055269 (Molecular Biology of the Cell, 2014).

Target: the molecule itself
Test: SEC-MALS

B1: Drp1 C505A (enzyme, human, UniProt O00429-4 1-699, looked up)
chain: MEALIPVINKLQDVFNTVGADIIQLPQIVVVGTQSSGKSSVLESLVGRDLLPRGTGIVTRRPLILQLVHVSQEDKRKTTGEENGVEAEEWGKFLHTKNKLYTDFDEIRQEIENETERISGNNKGVSPEPIHLKIFSPNVVNLTLVDLPGMTKVPVGDQPKDIELQIRELILRFISNPNSIILAVTAANTDMATSEALKISREVDPDGRRTLAVITKLDLMDAGTDAMDVLMGRVIPVKLGIIGVVNRSQLDINNKKSVTDSIRDEYAFLQKKYPSLANRNGTKYLARTLNRLLMHHIRDCLPELKTRINVLAAQYQSLLNSYGEPVDDKSATLLQLITKFATEYCNTIEGTAKYIETSELCGGARICYIFHETFGRTLESVDPLGGLNTIDILTAIRNATGPRPALFVPEVSFELLVKRQIKRLEEPSLRCVELVHEEMQRIIQHCSNYSTQELLRFPKLHDAIVEVVTCLLRKRLPVTNEMVHNLVAIELAYINTKHPDFADAAGLMNNNIEEQRRNRLARELPSAVSRDKVASGGGGVGDGVQEPTTGNWRGMLKTSKAEELLAEEKSKPIPIMPASPQKGHAVNLLDVPVPVARKLSAREQRDCEVIERLIKSYFLIVRKNIQDSVPKAVMHFLVNHVKDTLQSELVGQLYKSSLLDDLLTESEDMAQRRKEAADMLKALQGASQIIAEIRETHLW
  stoichiometry N: 2
